What follows are binders tested against T1, hen egg lysozyme (Gallus gallus (hen egg white), UniProt P00698) (assay: SPR; Biacore T200; lysozyme immobilised on Sensor Chip CM5 by amine coupling (200 RU); VHH injected 300 s, dissociation 600 s in PBST (PBS, 0.005% Tween 20); 1:1 binding model; duplicate). Details: both partners purified.
T1 construct: hen egg lysozyme (HEL), the antigen of D3-L11; also in PDB 6JB8; The supplier is named for the ELISA only; also called HEL; antigen lysozyme; source: bought: Sigma-Aldrich, Cat No. L6876
T1 sequence (P00698 19-147): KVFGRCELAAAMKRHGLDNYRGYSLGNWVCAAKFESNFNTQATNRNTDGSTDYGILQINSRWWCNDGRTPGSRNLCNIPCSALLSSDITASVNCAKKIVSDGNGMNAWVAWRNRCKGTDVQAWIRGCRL

Row | Kd [pM] | Binder
1 | 6 ± 0.4 | D3-L11 G97F (VHH, as the VHH chain of Sm1 (D3-L11 wild type, PDB 6JB8) with G97F; SAG tripeptide linker before the C-terminal 6xHis tag; source: ExpiCHO, transient transfection, purified from supernatant (His Mag Sepharose excel); not shown: His6, C-terminal, kept) VHH: DVQLVESGGGSVQAGGSLRLSCAASGSTDSIEYMTWFRQAPGKAREGVAALYTHTGNTYYTDSVKGRFTISQDKAKNMAYLRMDSVKSEDTAIYTCFATRKYVPVRFALDQSSYDYWGQGTQVTVSS
2 | 25 ± 0.3 | D3-L11 G26I (VHH, as the VHH chain of Sm1 (D3-L11 wild type, PDB 6JB8) with G26I; SAG tripeptide linker before the C-terminal 6xHis tag; source: ExpiCHO, transient transfection, purified from supernatant (His Mag Sepharose excel); not shown: His6, C-terminal, kept) VHH: DVQLVESGGGSVQAGGSLRLSCAASISTDSIEYMTWFRQAPGKAREGVAALYTHTGNTYYTDSVKGRFTISQDKAKNMAYLRMDSVKSEDTAIYTCGATRKYVPVRFALDQSSYDYWGQGTQVTVSS
3 | 5.57 ± 0.04 | D3-L11 A79Y (VHH, as the VHH chain of Sm1 (D3-L11 wild type, PDB 6JB8) with A79Y; SAG tripeptide linker before the C-terminal 6xHis tag; source: ExpiCHO, transient transfection, purified from supernatant (His Mag Sepharose excel); not shown: His6, C-terminal, kept) VHH: DVQLVESGGGSVQAGGSLRLSCAASGSTDSIEYMTWFRQAPGKAREGVAALYTHTGNTYYTDSVKGRFTISQDKAKNMYYLRMDSVKSEDTAIYTCGATRKYVPVRFALDQSSYDYWGQGTQVTVSS
4 | 3.66 ± 0.13 | D3-L11 A79V (VHH, as the VHH chain of Sm1 (D3-L11 wild type, PDB 6JB8) with A79V; SAG tripeptide linker before the C-terminal 6xHis tag; source: ExpiCHO, transient transfection, purified from supernatant (His Mag Sepharose excel); not shown: His6, C-terminal, kept) VHH: DVQLVESGGGSVQAGGSLRLSCAASGSTDSIEYMTWFRQAPGKAREGVAALYTHTGNTYYTDSVKGRFTISQDKAKNMVYLRMDSVKSEDTAIYTCGATRKYVPVRFALDQSSYDYWGQGTQVTVSS
5 | 14.9 ± 0.1 | D3-L11 A79W (VHH, as the VHH chain of Sm1 (D3-L11 wild type, PDB 6JB8) with A79W; SAG tripeptide linker before the C-terminal 6xHis tag; source: ExpiCHO, transient transfection, purified from supernatant (His Mag Sepharose excel); not shown: His6, C-terminal, kept) VHH: DVQLVESGGGSVQAGGSLRLSCAASGSTDSIEYMTWFRQAPGKAREGVAALYTHTGNTYYTDSVKGRFTISQDKAKNMWYLRMDSVKSEDTAIYTCGATRKYVPVRFALDQSSYDYWGQGTQVTVSS
6 | 26 ± 0.1 | D3-L11 A79R (VHH, as the VHH chain of Sm1 (D3-L11 wild type, PDB 6JB8) with A79R; SAG tripeptide linker before the C-terminal 6xHis tag; source: ExpiCHO, transient transfection, purified from supernatant (His Mag Sepharose excel); not shown: His6, C-terminal, kept) VHH: DVQLVESGGGSVQAGGSLRLSCAASGSTDSIEYMTWFRQAPGKAREGVAALYTHTGNTYYTDSVKGRFTISQDKAKNMRYLRMDSVKSEDTAIYTCGATRKYVPVRFALDQSSYDYWGQGTQVTVSS
7 | 7.2 ± 0.03 | D3-L11 A79Q (VHH, as the VHH chain of Sm1 (D3-L11 wild type, PDB 6JB8) with A79Q; SAG tripeptide linker before the C-terminal 6xHis tag; source: ExpiCHO, transient transfection, purified from supernatant (His Mag Sepharose excel); not shown: His6, C-terminal, kept) VHH: DVQLVESGGGSVQAGGSLRLSCAASGSTDSIEYMTWFRQAPGKAREGVAALYTHTGNTYYTDSVKGRFTISQDKAKNMQYLRMDSVKSEDTAIYTCGATRKYVPVRFALDQSSYDYWGQGTQVTVSS
8 | 13.1 ± 0.4 | D3-L11 A79T (VHH, as the VHH chain of Sm1 (D3-L11 wild type, PDB 6JB8) with A79T; SAG tripeptide linker before the C-terminal 6xHis tag; source: ExpiCHO, transient transfection, purified from supernatant (His Mag Sepharose excel); not shown: His6, C-terminal, kept) VHH: DVQLVESGGGSVQAGGSLRLSCAASGSTDSIEYMTWFRQAPGKAREGVAALYTHTGNTYYTDSVKGRFTISQDKAKNMTYLRMDSVKSEDTAIYTCGATRKYVPVRFALDQSSYDYWGQGTQVTVSS

Second part, the binder before the results:

Row | Binder | Kd [pM]
9 | D3-L11 A79H (VHH, as the VHH chain of Sm1 (D3-L11 wild type, PDB 6JB8) with A79H; SAG tripeptide linker before the C-terminal 6xHis tag; source: ExpiCHO, transient transfection, purified from supernatant (His Mag Sepharose excel); not shown: His6, C-terminal, kept) VHH: DVQLVESGGGSVQAGGSLRLSCAASGSTDSIEYMTWFRQAPGKAREGVAALYTHTGNTYYTDSVKGRFTISQDKAKNMHYLRMDSVKSEDTAIYTCGATRKYVPVRFALDQSSYDYWGQGTQVTVSS | 23.1
10 | D3-L11 A79M (VHH, as the VHH chain of Sm1 (D3-L11 wild type, PDB 6JB8) with A79M; SAG tripeptide linker before the C-terminal 6xHis tag; source: ExpiCHO, transient transfection, purified from supernatant (His Mag Sepharose excel); not shown: His6, C-terminal, kept) VHH: DVQLVESGGGSVQAGGSLRLSCAASGSTDSIEYMTWFRQAPGKAREGVAALYTHTGNTYYTDSVKGRFTISQDKAKNMMYLRMDSVKSEDTAIYTCGATRKYVPVRFALDQSSYDYWGQGTQVTVSS | 6.91 ± 0.1
11 | D3-L11 A79F (VHH, as the VHH chain of Sm1 (D3-L11 wild type, PDB 6JB8) with A79F; SAG tripeptide linker before the C-terminal 6xHis tag; source: ExpiCHO, transient transfection, purified from supernatant (His Mag Sepharose excel); not shown: His6, C-terminal, kept) VHH: DVQLVESGGGSVQAGGSLRLSCAASGSTDSIEYMTWFRQAPGKAREGVAALYTHTGNTYYTDSVKGRFTISQDKAKNMFYLRMDSVKSEDTAIYTCGATRKYVPVRFALDQSSYDYWGQGTQVTVSS | 12.1 ± 0.2
12 | D3-L11 A79C (VHH, as the VHH chain of Sm1 (D3-L11 wild type, PDB 6JB8) with A79C; SAG tripeptide linker before the C-terminal 6xHis tag; source: ExpiCHO, transient transfection, purified from supernatant (His Mag Sepharose excel); not shown: His6, C-terminal, kept) VHH: DVQLVESGGGSVQAGGSLRLSCAASGSTDSIEYMTWFRQAPGKAREGVAALYTHTGNTYYTDSVKGRFTISQDKAKNMCYLRMDSVKSEDTAIYTCGATRKYVPVRFALDQSSYDYWGQGTQVTVSS | 3.74 ± 0.03
13 | D3-L11 A79L (VHH, as the VHH chain of Sm1 (D3-L11 wild type, PDB 6JB8) with A79L; SAG tripeptide linker before the C-terminal 6xHis tag; source: ExpiCHO, transient transfection, purified from supernatant (His Mag Sepharose excel); not shown: His6, C-terminal, kept) VHH: DVQLVESGGGSVQAGGSLRLSCAASGSTDSIEYMTWFRQAPGKAREGVAALYTHTGNTYYTDSVKGRFTISQDKAKNMLYLRMDSVKSEDTAIYTCGATRKYVPVRFALDQSSYDYWGQGTQVTVSS | 6.54 ± 0.03
14 | D3-L11 A24L (VHH, as the VHH chain of Sm1 (D3-L11 wild type, PDB 6JB8) with A24L; SAG tripeptide linker before the C-terminal 6xHis tag; source: ExpiCHO, transient transfection, purified from supernatant (His Mag Sepharose excel); not shown: His6, C-terminal, kept) VHH: DVQLVESGGGSVQAGGSLRLSCALSGSTDSIEYMTWFRQAPGKAREGVAALYTHTGNTYYTDSVKGRFTISQDKAKNMAYLRMDSVKSEDTAIYTCGATRKYVPVRFALDQSSYDYWGQGTQVTVSS | 43.6 ± 1.3
15 | D3-L11 A79N (VHH, as the VHH chain of Sm1 (D3-L11 wild type, PDB 6JB8) with A79N; SAG tripeptide linker before the C-terminal 6xHis tag; source: ExpiCHO, transient transfection, purified from supernatant (His Mag Sepharose excel); not shown: His6, C-terminal, kept) VHH: DVQLVESGGGSVQAGGSLRLSCAASGSTDSIEYMTWFRQAPGKAREGVAALYTHTGNTYYTDSVKGRFTISQDKAKNMNYLRMDSVKSEDTAIYTCGATRKYVPVRFALDQSSYDYWGQGTQVTVSS | 8.04 ± 0.07
